Measurements published in patent US11448657B2, “Methods and kits for assessing Heparanase procoagulant activity, compositions comprising Heparanase, and methods for the treatment of coagulation-related disorders” (RAMBAM MED-TECH, priority 2011, dated 2022).

Target: T1, TF-factor VIIa complex (Homo sapiens, UniProt P13726)
T1 construct: purchased American Diagnostica (Stanford, Conn., USA)
Assay: Activated factor X generation assay with purified TF, factor VIIa and factor X (chromogenic substrate)
Assay type: biochemical
Protocol: FIG. 1A. Recombinant human TF, recombinant human factor VIIa, and plasma-derived human factor X were incubated (15 min, 37° C.) in a total assay volume of 125 μL. Chromogenic substrate for the detection of factor Xa was then added (final concentration 1 mM). Recombinant active heparanase GS3 (Hepa) was added prior to the addition of the coagulation factors. The mean value±SD of three independent experiments in shown. […]
FIG. 1C. […] The mean value of two experiments is shown. Note a 2-fold increase in coagulation activity when the medium contained heparanase or its derivatives.
Following preliminary experiments to quantify the appropriate protein doses, we performed a basic experiment of factor Xa generation in the following manner: the concentrations mentioned are the final concentrations. Lipidated recombinant human TF (0.004 μM, […]), recombinant human factor VIIa (0.04 μM) and plasma-derived human factor X (1.4 μM) were incubated in 50 μL assay buffer (0.06 M Tris, 0.04 M NaCl, 2 mM CaCl 2, 0.04% bovine serum albumin, pH 8.4) to a total volume of 125 μL in a 96-well sterile plate. After 15 min at 37° C., chromogenic substrate for factor Xa was added (1 mM). After 20 min, the reaction was stopped with 50 μL of glacial acetic acid and the level of factor Xa generation was determined using an enzyme-linked immunosorbent assay (ELISA) plate reader (Power Wave XS, BIO-TEK, VT, USA). In order to visualize the increased production of factor Xa by western blotting, the experiment was repeated with 7 μM factor X. After 15 min at 37° C., half of the reaction volume was subjected to blotting using monoclonal anti-human factor X/Xa heavy chain antibody.
The factor Xa generation assay was performed as described in the Design and Methods section with increasing doses of recombinant human heparanase (GS3) added prior to the addition of the coagulation factors. […] It should be noted that factor X is composed of two polypeptide chains, a heavy chain with a molecular weight of 38 kDa and a light chain with a molecular weight of 18 kDa joined by a dipeptide Arg-Arg. The factor VIIa-TF complex activates the conversion of factor X to factor Xa by cleaving the heavy chain to a 33 kDa peptide. […] In order to exclude contamination of the heparanase preparation during the routine procedure of purification described in the Design and Methods section, the inventors tested the effect of overnight serum-free without phenol medium of 293 HEK cells over-expressing heparanase and its derivatives compared to mock. The proteins were further purified from the culture medium and analyzed. Similar quantities of proteins were obtained from the culture media.

T1 sequence (P13726 33-295): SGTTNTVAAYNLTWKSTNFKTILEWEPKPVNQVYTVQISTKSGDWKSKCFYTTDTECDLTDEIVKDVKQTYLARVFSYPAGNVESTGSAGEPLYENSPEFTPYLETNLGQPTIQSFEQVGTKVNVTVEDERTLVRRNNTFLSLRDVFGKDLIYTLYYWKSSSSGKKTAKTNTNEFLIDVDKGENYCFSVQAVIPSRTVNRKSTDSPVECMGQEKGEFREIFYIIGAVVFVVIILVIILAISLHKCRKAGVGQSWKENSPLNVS
T1 sequence (P08709 61-212 partner limits assumed): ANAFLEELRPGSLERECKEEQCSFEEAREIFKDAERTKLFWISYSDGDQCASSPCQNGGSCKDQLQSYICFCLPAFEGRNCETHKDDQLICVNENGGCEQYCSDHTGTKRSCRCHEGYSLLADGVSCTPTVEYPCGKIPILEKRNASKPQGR
T1 sequence (P08709 213-466 partner limits assumed): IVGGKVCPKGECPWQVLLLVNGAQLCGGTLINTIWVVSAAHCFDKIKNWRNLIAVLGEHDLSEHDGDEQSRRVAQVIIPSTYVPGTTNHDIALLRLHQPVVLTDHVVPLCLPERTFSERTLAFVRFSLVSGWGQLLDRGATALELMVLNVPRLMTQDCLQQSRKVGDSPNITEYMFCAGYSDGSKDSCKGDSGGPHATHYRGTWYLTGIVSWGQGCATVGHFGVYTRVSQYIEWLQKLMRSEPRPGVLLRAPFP

B1: heparanase: single chain GS3 active heparanase, comprised of the 8 kDa and 50 kDa heparanase heterodimer (8+50), recombinant human (protein, listed as Homo sapiens)
chain 1: DPAQDVVDLDFFTQEPLHLVSPSFLSVTIDANLATDPRFLILLGSPKLRTLARGLSPAYLRFGGTKTDFLIFDPKKE
chain 2: DPGKKFKNSTYSRSSVDVLYTFANCSGLDLIFGLNALLRTADLQWNSSNAQLLLDYCSSKGYNISWELGNEPNSFLKKADIFINGSQLGEDFIQLHKLLRKSTFKNAKLYGPDVGQPRRKTAKMLKSFLKAGGEVIDSVTWHHYYLNGRTATREDFLNPDVLDIFISSVQKVFQVVESTRPGKKVWLGETSSAYGGGAPLLSDTFAAGFMWLDKLGLSARMGIEVVMRQVFFGAGNYHLVDENFDPLPDYWLSLLFKKLVGTKVLMASVQGSKRRKLRVYLHCTNTDNPRYKEGDLTLYAINLHNVTKYLRLPYPFSNKQVDKYLLRPLGPHGLLSKSVQLNGLTLKMVDDQTLPPLMEKPLRPGSSLGLPAFSYSFFVIRNAKVAACI
modifications: single-chain GS3 linker
TF, factor VIIa, factor X, 15 min 37° C., heparanase added prior to the coagulation factors
  increase in coagulation activity (factor Xa level): 2 fold
Absence of sufficient factor VIIa
  effect on Xa generation at reduced factor VIIa: effect of heparanase was abolished
Overnight serum-free medium of 293 HEK cells over-expressing heparanase species, compared to mock
  increase in factor Xa levels: 2 fold
Very low levels of TF (3.13 μg)
  Xa generation at reduced TF: increased Xa generation by three folds
Without TF, factor VIIa or factor X, or with inactivated VIIa
  factor Xa generation in incomplete reaction mixture: Factor Xa was not generated
